Experimental findings from PMC7299998, “Recombinant Bri3 BRICHOS domain is a molecular chaperone with effect against amyloid formation and non-fibrillar protein aggregation” (Scientific Reports, 2020) are described below.

Data set [1] deals with the molecule itself. In words: negative-stain transmission electron microscopy; oligomers isolated by SEC (Superose 6, 20 mM ammonium acetate pH 8.0), uranyl acetate stain, reference-free 2D classification, Feret's diameters.
The target of data set [2] is T1, citrate synthase (CS) from porcine heart (porcine, UniProt P00889 28-464).
T1 construct: citrate synthase, mitochondrial, from porcine heart; Used native (fresh) or partly heat-denatured (2 h at 45 °C); the assays tell the two states apart; source: bought: Sigma-Aldrich (from porcine heart)
T1 sequence (looked up): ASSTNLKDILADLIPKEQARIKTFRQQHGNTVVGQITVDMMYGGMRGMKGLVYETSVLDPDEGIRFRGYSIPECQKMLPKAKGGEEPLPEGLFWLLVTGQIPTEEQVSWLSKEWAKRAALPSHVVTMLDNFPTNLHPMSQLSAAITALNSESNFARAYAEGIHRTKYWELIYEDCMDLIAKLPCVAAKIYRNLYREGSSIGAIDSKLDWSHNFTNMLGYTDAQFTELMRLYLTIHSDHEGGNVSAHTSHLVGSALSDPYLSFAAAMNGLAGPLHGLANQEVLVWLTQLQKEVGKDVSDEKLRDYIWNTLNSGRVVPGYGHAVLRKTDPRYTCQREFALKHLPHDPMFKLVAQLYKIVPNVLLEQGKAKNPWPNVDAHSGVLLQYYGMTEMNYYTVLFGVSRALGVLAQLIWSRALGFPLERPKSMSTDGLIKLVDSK
Briefly: SEC; supernatant of CS:rh Bri3 BRICHOS 1:2 molar ratio after 2 h at 45 °C and centrifugation; Superose 6, 20 mM ammonium acetate pH 8.0, 0.7 ml/min; peak fractions by reducing SDS-PAGE. The following applies: both partners purified.

Data set [3] concerns the molecule itself. Briefly: SEC; rh BRICHOS alone on Superose 6 10/300 GL, 0.5 ml/min, 20 mM PB, 0.2 mM EDTA pH 8.0 or 20 mM ammonium acetate pH 8.0; hydrodynamic diameter by comparison with standards.

B1: recombinant human (rh) Bri2 BRICHOS domain (domain or fragment, UniProt Q9Y287 90-236, looked up)
chain: GIKYIKDDVILNEPSADAPAALYQTIEENIKIFEEEEVEFISVPVPEFADSDPANIVHDFNKKLTAYLDLNLDKCYVIPLNTSIVMPPRNLLELLINIKAGTYLPQSYLIHEHMVITDRIENIDHLGFFIYRLCHDKETYKLQRRET
notes: Bri2 (ITM2B), human, residues 90-236 (linker part and BRICHOS domain); The modelled and aligned Bri2 BRICHOS is 113-231; the expressed construct is 90-236; Vector pET-32c(+); also called Bri2(90-236); source: E. coli Shuffle T7, purified (Ni-Sepharose from 2 M urea extract, thrombin cleavage, second Ni-Sepharose); not shown: Trx, N-terminal, cleaved; His6, N-terminal, cleaved; S tag, N-terminal, …
As for B1, the binding result in data set [1] is “binds”.

B2: recombinant human (rh) Bri3 BRICHOS domain (domain or fragment, UniProt Q9NQX7 112-230, looked up)
chain: MELEEDVKIYLDENYERINVPVPQFGGGDPADIIHDFQRGLTAYHDISLDKCYVIELNTTIVLPPRNFWELLMNVKRGTYLPQTYIIQEEMVVTEHVSDKEALGSFIYHLCNGKDTYRL
notes: Bri3, human, residues 112-230 (BRICHOS domain); Bri3 is a 267-residue protein; Mainly high molecular weight oligomers, partly held by disulfide bonds; Calculated monomer mass 17.3 kDa with the S tag; Vector pET-32c(+); also called Bri3(112-230); rh (S-tag) Bri3 BRICHOS; source: E. coli Shuffle T7, purified (Ni-Sepharose from 2 M urea extract, thrombin cleavage, second Ni-Sepharose); not shown: …
With B2, the binding result in data set [2] and in data set [3] was “binds” in each case.
